Assay results reported in JP2021054739A (dated 2021).

Target: T1, Recombinant Human CEACAM-5/CD66e Protein, CF (R&D SYSTEMS) (human, UniProt P06731 35-685)
T1 construct: Bought recombinant protein, immobilised on a CM5 chip by amine coupling; also called 抗原CEACAM5
T1 sequence (looked up): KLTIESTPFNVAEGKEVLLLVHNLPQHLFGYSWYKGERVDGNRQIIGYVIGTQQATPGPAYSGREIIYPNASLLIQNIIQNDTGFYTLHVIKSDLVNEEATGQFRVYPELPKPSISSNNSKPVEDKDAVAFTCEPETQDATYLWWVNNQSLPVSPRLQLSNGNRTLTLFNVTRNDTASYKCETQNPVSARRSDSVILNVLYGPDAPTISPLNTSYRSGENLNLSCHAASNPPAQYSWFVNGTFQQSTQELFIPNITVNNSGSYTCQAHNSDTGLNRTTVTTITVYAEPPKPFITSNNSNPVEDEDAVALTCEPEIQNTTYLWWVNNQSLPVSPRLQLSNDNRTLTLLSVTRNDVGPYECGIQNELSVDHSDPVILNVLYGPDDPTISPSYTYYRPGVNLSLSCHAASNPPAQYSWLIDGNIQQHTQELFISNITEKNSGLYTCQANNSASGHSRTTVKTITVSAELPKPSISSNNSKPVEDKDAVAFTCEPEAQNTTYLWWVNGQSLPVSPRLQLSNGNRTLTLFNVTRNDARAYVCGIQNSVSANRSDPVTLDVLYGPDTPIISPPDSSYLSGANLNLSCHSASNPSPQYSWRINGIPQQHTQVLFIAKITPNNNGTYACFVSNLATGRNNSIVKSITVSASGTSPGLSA
Experiment: SPR, Biacore T200; CEACAM5 immobilised on CM5 (279 RU), CEA-V2122 as analyte, single-cycle kinetics, bivalent analyte fit; KD = kd1/ka1

B1: CEA-V2122 (scFv)
chain: QVKLEQSGAEVVKPGASVKLSCKASGFNIKDSYMHWLRQGPGQRLEWIGWIDPENGDTEYAPKFQGKATFTTDTSANTAYLGLSSLRPEDTAVYYCNEGTPTGPYYFDYWGQGTLVTVSSGGGGSGGGGSGGGGSENVLTQSPSSMSVSVGDRVNIACSASSSVPYMHWLQQKPGKSPKLLIYLTSNLASGVPSRFSGSGSGTDYSLTISSVQPEDAATYYCQQRSSYPLTFGGGTKLEIKGGGGSGGGGAEAGITGTWSDQLGDTFIVTAGADGALTGTYENAVGGAESRYVLTGRYDSAPATDGSGTALGWTVAWKNNSKNAHSATTWSGQYVGGADAKINTQWLLTSGTTNANAWKSTLVGHDTFTKVKPSAASHHHHHH
notes: Fusion of an scFv with a streptavidin mutant; also called scFv-V2122; CEA-Cupid
Kd: 1.08 pM
